Reference: publication PMC2756588

T1: Bbc1, P47068
T1 sequence (P47068 1-78, looked up): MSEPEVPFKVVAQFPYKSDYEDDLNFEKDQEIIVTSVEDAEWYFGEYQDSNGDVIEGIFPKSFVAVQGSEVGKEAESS

T2: Lsb3, P43603
T2 sequence (P43603 385-451, looked up): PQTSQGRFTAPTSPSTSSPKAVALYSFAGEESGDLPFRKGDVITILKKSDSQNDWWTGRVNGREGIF

T3: Bzz1-2, P38822
T3 sequence (P38822 568-633, looked up): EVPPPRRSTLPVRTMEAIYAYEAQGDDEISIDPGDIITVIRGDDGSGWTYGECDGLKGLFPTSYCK

T4: Pin3, Q06449
T4 sequence (Q06449 53-122, looked up): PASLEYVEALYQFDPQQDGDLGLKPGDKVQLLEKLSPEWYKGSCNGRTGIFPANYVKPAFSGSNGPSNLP

T5: Abp1, P15891
T5 sequence (P15891 535-592, looked up): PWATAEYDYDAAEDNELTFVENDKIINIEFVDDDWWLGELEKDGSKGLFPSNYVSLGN

T6: Hof1, Q05080
T6 sequence (Q05080 590-669, looked up): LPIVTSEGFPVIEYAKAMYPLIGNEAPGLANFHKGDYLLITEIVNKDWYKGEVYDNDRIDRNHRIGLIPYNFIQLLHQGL

T7: Cdc25, P04821
T7 sequence (P04821 50-136, looked up): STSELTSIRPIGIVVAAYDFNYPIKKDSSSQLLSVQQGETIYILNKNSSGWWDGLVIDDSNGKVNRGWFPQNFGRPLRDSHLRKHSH

T8: Lsb1, P53281
T8 sequence (P53281 45-122, looked up): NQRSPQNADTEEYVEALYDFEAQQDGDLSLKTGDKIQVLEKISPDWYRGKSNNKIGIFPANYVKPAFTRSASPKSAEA

T9: Bud14, P27637
T9 sequence (P27637 247-328, looked up): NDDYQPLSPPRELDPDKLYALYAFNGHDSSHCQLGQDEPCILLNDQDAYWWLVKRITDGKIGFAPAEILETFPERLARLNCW

T10: Boi1, P38041
T10 sequence (P38041 1-86, looked up): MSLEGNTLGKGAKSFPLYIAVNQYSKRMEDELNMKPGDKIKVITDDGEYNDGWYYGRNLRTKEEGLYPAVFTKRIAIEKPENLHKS

T11: Cyk3, Q07533
T11 sequence (Q07533 1-83, looked up): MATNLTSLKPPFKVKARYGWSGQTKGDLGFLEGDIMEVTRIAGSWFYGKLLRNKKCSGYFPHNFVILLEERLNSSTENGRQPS

T12: Myo5, Q04439
T12 sequence (Q04439 1072-1160, looked up): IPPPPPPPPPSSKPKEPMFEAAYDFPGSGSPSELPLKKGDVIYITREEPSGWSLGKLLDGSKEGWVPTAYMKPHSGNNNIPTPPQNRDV

T13: Pex13, P80667
T13 sequence (P80667 295-386, looked up): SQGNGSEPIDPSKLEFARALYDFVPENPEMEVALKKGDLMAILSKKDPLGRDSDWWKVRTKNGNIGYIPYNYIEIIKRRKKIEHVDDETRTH

T14: Fus1, P11710
T14 sequence (P11710 432-512, looked up): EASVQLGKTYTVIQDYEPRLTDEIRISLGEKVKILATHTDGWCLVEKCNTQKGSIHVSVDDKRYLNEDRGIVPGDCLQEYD

T15: Boi2, P39969
T15 sequence (P39969 32-116, looked up): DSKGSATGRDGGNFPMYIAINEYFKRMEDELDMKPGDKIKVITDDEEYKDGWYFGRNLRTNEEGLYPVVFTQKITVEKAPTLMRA

T16: Nbp2, Q12163
T16 sequence (Q12163 103-180, looked up): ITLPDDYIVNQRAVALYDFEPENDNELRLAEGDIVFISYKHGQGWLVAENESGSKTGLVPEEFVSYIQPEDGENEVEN

T17: Sla1-3, P32790
T17 sequence (P32790 344-424, looked up): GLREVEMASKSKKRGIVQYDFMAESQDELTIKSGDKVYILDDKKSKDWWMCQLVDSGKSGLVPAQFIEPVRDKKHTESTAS

T18: Lsb4, P32793
T18 sequence (P32793 402-468, looked up): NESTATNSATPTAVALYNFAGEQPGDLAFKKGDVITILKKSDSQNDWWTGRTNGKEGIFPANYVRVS

T19: Hse1, P38753
T19 sequence (P38753 208-285, looked up): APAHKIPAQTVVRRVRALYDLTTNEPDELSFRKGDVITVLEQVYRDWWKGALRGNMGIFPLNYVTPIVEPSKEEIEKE

T20: Sla1-2, P32790
T20 sequence (P32790 60-140, looked up): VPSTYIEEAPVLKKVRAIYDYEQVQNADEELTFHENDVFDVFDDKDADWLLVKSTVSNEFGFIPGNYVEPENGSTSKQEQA

T21: Bzz1-1, P38822
T21 sequence (P38822 478-572, looked up): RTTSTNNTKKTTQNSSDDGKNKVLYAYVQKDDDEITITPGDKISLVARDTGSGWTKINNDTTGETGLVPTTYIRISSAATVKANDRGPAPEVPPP


Legend:
Assay in all cases: SPOT array
Bbc1, P47068 = biological target: T1, Bbc1, P47068; conditions: median of control spots 796
Lsb3, P43603 = biological target: T2, Lsb3, P43603; conditions: median of control spots 406
GST = conditions: median of control spots 978
Sho1, P40073 = conditions: median of control spots 1148
Myo3, P36006 = conditions: median of control spots 468
Bzz1-2, P38822 = biological target: T3, Bzz1-2, P38822; conditions: median of control spots 4538
Pin3, Q06449 = biological target: T4, Pin3, Q06449; conditions: median of control spots 2171
Rvs167, P39743 = conditions: median of control spots 2707
Abp1, P15891 = biological target: T5, Abp1, P15891; conditions: median of control spots 935
Hof1, Q05080 = biological target: T6, Hof1, Q05080; conditions: median of control spots 4086
Cdc25, P04821 = biological target: T7, Cdc25, P04821; conditions: median of control spots 969
Lsb1, P53281 = biological target: T8, Lsb1, P53281; conditions: median of control spots 388
Bud14, P27637 = biological target: T9, Bud14, P27637; conditions: median of control spots 956
Bem1-1, P29366 = conditions: median of control spots 4282
Boi1, P38041 = biological target: T10, Boi1, P38041; conditions: median of control spots 1162
Cyk3, Q07533 = biological target: T11, Cyk3, Q07533; conditions: median of control spots 1451
Myo5, Q04439 = biological target: T12, Myo5, Q04439; conditions: median of control spots 471
Pex13, P80667 = biological target: T13, Pex13, P80667; conditions: median of control spots 1341
Bem1-2, P29366 = conditions: median of control spots 4347
Fus1, P11710 = biological target: T14, Fus1, P11710; conditions: median of control spots 1200
Boi2, P39969 = biological target: T15, Boi2, P39969; conditions: median of control spots 1161
Nbp2, Q12163 = biological target: T16, Nbp2, Q12163; conditions: median of control spots 357
Sla1-3, P32790 = biological target: T17, Sla1-3, P32790; conditions: median of control spots 5475
Lsb4, P32793 = biological target: T18, Lsb4, P32793; conditions: median of control spots 397
Hse1, P38753 = biological target: T19, Hse1, P38753; conditions: median of control spots 1727
Sla1-2, P32790 = biological target: T20, Sla1-2, P32790; conditions: median of control spots 712
Bzz1-1, P38822 = biological target: T21, Bzz1-1, P38822; conditions: median of control spots 4446

Rvs167, P39743, sequence (P39743 419-482): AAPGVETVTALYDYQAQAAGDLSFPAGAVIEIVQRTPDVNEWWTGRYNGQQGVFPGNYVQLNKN
Sho1, P40073, sequence (P40073 287-367): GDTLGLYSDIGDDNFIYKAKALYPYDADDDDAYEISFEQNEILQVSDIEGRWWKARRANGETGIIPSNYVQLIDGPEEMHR
Bem1-2, P29366, sequence (P29366 139-227): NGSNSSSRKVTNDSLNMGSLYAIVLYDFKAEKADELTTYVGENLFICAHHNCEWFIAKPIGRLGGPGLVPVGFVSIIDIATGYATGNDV
Bem1-1, P29366, sequence (P29366 55-141): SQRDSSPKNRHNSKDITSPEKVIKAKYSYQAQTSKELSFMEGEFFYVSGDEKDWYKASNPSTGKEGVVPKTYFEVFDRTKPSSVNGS

Binder | SPOT intensity (Bbc1, P47068) | SPOT intensity (Lsb3, P43603) | SPOT intensity (GST) | SPOT intensity (Sho1, P40073) | SPOT intensity (Myo3, P36006) | SPOT intensity (Bzz1-2, P38822) | SPOT intensity (Pin3, Q06449) | SPOT intensity (Rvs167, P39743) | SPOT intensity (Abp1, P15891) | SPOT intensity (Hof1, Q05080) | SPOT intensity (Cdc25, P04821) | SPOT intensity (Lsb1, P53281) | SPOT intensity (Bud14, P27637) | SPOT intensity (Bem1-1, P29366) | SPOT intensity (Boi1, P38041) | SPOT intensity (Cyk3, Q07533) | SPOT intensity (Myo5, Q04439) | SPOT intensity (Pex13, P80667) | SPOT intensity (Bem1-2, P29366) | SPOT intensity (Fus1, P11710) | further results
IHTRRPSSTSQYLIR | 6 | 0 | 0 | 28 | 1 | 7 | 25 | 0 | 27 | 11 | 10 | 0 | 4 | 9 | 2 | 1 | 1 | 11 | 43 | 233 | SPOT intensity (Boi2, P39969): 0; SPOT intensity (Nbp2, Q12163): 0; SPOT intensity (Sla1-3, P32790): 21; SPOT intensity (Lsb4, P32793): 2; SPOT intensity (Hse1, P38753): 22; SPOT intensity (Sla1-2, P32790): 0; SPOT intensity (Bzz1-1, P38822): 0
RKNRAPPQRPRFNRE | 362 | 30 | 4 | 178 | 51 | 77 | 12 | 4 | 235 | 6 | 30 | 390 | 15 | 0 | 8 | 4 | 5 | 14 | 65 | 14 | SPOT intensity (Boi2, P39969): 3; SPOT intensity (Nbp2, Q12163): 240; SPOT intensity (Sla1-3, P32790): 379; SPOT intensity (Lsb4, P32793): 49; SPOT intensity (Hse1, P38753): 25; SPOT intensity (Sla1-2, P32790): 4; SPOT intensity (Bzz1-1, P38822): 8
LKVTPGRRAPTISKI | 17 | 0 | 0 | 72 | 80 | 1 | 14 | 0 | 83 | 0 | 13 | 0 | 8 | 1 | 0 | 1 | 6 | 3 | 3 | 0 | SPOT intensity (Boi2, P39969): 2; SPOT intensity (Nbp2, Q12163): 85; SPOT intensity (Sla1-3, P32790): 6; SPOT intensity (Lsb4, P32793): 7; SPOT intensity (Hse1, P38753): 0; SPOT intensity (Sla1-2, P32790): 0; SPOT intensity (Bzz1-1, P38822): 0
RKNRAPPQRPRFNRD | 535 | 68 | 4 | 262 | 61 | 91 | 9 | 2 | 298 | 8 | 40 | 670 | 18 | 0 | 12 | 12 | 3 | 10 | 104 | 26 | SPOT intensity (Boi2, P39969): 7; SPOT intensity (Nbp2, Q12163): 490; SPOT intensity (Sla1-3, P32790): 353; SPOT intensity (Lsb4, P32793): 75; SPOT intensity (Hse1, P38753): 23; SPOT intensity (Sla1-2, P32790): 3; SPOT intensity (Bzz1-1, P38822): 11
